Measured values reported in patent US20100034812A1.
Like-named read-outs stand apart in the source and are kept apart here.

How the values were obtained:
[1] = biological target: recombinant birch pollen allergen Bet v 1 (Betula verrucosa) (UniProt P15494); experiment: ELISA, IgE of non-allergic control serum on rBet v 1
[2] = biological target: recombinant birch pollen allergen Bet v 1 (Betula verrucosa) (UniProt P15494); experiment: ELISA, IgE of control serum on rBet v 1 after clone 10
[3] = biological target: recombinant birch pollen allergen Bet v 1 (Betula verrucosa) (UniProt P15494); experiment: ELISA, IgE of control serum on rBet v 1 after clone 13
[4] = biological target: recombinant birch pollen allergen Bet v 1 (Betula verrucosa) (UniProt P15494); experiment: ELISA, IgE of control serum on rBet v 1 after clone 4
[5] = biological target: recombinant birch pollen allergen Bet v 1 (Betula verrucosa) (UniProt P15494); experiment: as above; remark: listed apart in the source
[6] = biological target: recombinant birch pollen allergen Bet v 1 (Betula verrucosa) (UniProt P15494); experiment: ELISA, IgE of control serum on rBet v 1 after clone 12
[7] = biological target: recombinant birch pollen allergen Bet v 1 (Betula verrucosa) (UniProt P15494); experiment: ELISA, IgE of control serum on rBet v 1 after clone 13; remark: listed apart in the source
[8] = biological target: recombinant birch pollen allergen Bet v 1 (Betula verrucosa) (UniProt P15494); experiment: ELISA, IgE of control serum on rBet v 1 after clone 2
[9] = biological target: recombinant birch pollen allergen Bet v 1 (Betula verrucosa) (UniProt P15494); experiment: ELISA, IgE of control serum on rBet v 1 after clone 12; remark: listed apart in the source
[10] = biological target: recombinant birch pollen allergen Bet v 1 (Betula verrucosa) (UniProt P15494); experiment: ELISA, IgE of control serum on rBet v 1 after clone 10; remark: listed apart in the source
[11] = biological target: recombinant birch pollen allergen Bet v 1 (Betula verrucosa) (UniProt P15494); experiment: ELISA, IgE of control serum on rBet v 1 after clone 2; remark: listed apart in the source
[12] = biological target: recombinant birch pollen allergen Bet v 1 (Betula verrucosa) (UniProt P15494); experiment: ELISA, IgE of non-allergic control serum on rBet v 1; remark: listed apart in the source

Sequence of UniProt P15494 (P15494 2-160 limits assumed): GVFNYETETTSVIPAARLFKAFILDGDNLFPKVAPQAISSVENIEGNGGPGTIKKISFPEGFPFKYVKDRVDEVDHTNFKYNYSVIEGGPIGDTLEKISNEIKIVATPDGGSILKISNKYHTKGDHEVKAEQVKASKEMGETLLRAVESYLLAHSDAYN

OD without mAb [1]: 0.03 OD | OD with mAb [2]: 0.09 OD | OD with mAb [3]: 0.08 OD | OD with mAb [4]: 0.04 OD | OD with mAb [5]: 0.09 OD | OD with mAb [6]: 0.04 OD | OD with mAb [7]: 0.15 OD | OD with mAb [8]: 0.09 OD | OD with mAb [9]: 0.14 OD | OD with mAb [10]: 0.03 OD | OD with mAb [11]: 0.03 OD | OD without mAb [12]: 0.06 OD
Substance: serum from a non-allergic person (antibody)
